This passage reports % stained results from patent publication US20260159607A1.

The target of assay [1] is mouse DCLK1-CAR (on transduced T cells). The assay is described as follows: flow cytometry of CAR-transduced T cells stained with biotinylated DCLK1 protein (FL2-H), gate 'stained'; controls: T cells 3.19% (small print 3.18%), mock 3.17%. (In general: In flow cytometry, cells or beads pass a laser one at a time.)
Assay [2] concerns the target human DCLK1-CAR (on transduced T cells). The assay is described as above.

For the substance “Biotin-labeled DCLK1 (from UniProt O15075 1-740)”, the % stained in assay [1] was 11.6%; in assay [2], 2.73%.
